Data from patent publication US12686846B2, “Plant sweet and yeast MSF transporter capable of transporting different sugars simultaneously” (THE BOARD OF TRUSTEES OF THE UNIVERSITY OF ILLINOIS, priority 2020, dated 2026).
Values joined by “and” are separate entries in the source; they are usually repeats but may differ in a detail not shown here. Equal entries are not always repeated. “Also recorded” adds a separate entry of the source.

Experiments:
[1] = system: SR8D8 expressing transporter; experiment: Glucose and xylose mixed sugar flask fermentation (20 g/L each); format: cell-based, S. cerevisiae; settings: 20 g/L of glucose and xylose, YP medium
Procedure: (§1) For flask fermentation, a single colony was inoculated to 5 or 25 mL YPE ([…], 1% w/v yeast extract, 2% peptone, 5% ethanol) supplemented with 200 μg/ml of geneticin to obtain seed cultures. […] Flask fermentations were maintained at 30° C. and 250 rpm.
(§2) A xylose fermenting S. cerevisiae yeast (SR8) with HXT1-7Δ, GAL2Δ deletions was used for transporter screening and characterization (SR8D8). SR8D8 was grown in YPE medium/plate (10 g/L yeast extract, 20 g/L peptone, and 5 g/L ethanol). […] SRD8 strains transformed with plasmid containing KanMX marker conferring resistance to G418 (geneticin) were propagated on YPE supplemented with 200 μg/ml of geneticin. For growth and flask fermentation experiments all media was supplemented with 200 μg/ml of geneticin for plasmid maintenance. Biomass was calculated from the OD600 measured using a Biomate 5 UV-visible spectrophotometer (Fisher, NY, USA). All growth rates were measured using a Bioscreen C plate reader system (Growth Curves USA, Piscataway, NJ, USA). A 2 μL inoculum of fully grown culture was added into 200 μL YP (+200 μg/ml Geneticin) with varying concentrations of different sugars. A wide band filter (420-580 nm) was used to measure optical density. Bioscreen C values represent mean value from three biological replicates. In all cases, the Bioscreen C was set to maintain a temperature of 30° C. and high aeration through high continuous shaking.

[2] = substrate: OC[C@H]1OC(O)[C@H](O)[C@@H](O)[C@@H]1O; experiment: cells, lysate or membranes; settings: other: initial glucose uptake (5 s), 30° C., pH 6.5, 0.2 to 100 mM glucose, ± SEM in Table 1
[3] = system: SR8D8 expressing transporter; experiment: Transporter screening for growth on glucose or xylose (Bioscreen C); format: cell-based, S. cerevisiae; settings: glucose or xylose containing medium, OD600
Procedure: ScGal2 expressing SR8D8 were used as a positive control (FIG. 3). Most of the AtSWEETs and putative oleaginous transporters expressing strains were not able to grow on glucose or xylose.
as §2

[4] = system: transporter-overexpressing SR8D8; experiment: Inhibition of xylose uptake by glucose; format: cell-based, S. cerevisiae; settings: 25 mM or 100 mM glucose
Procedure: SR8D8 containing the respective plasmid was grown on selective YPE medium to an OD600 of 1-1.5, harvested by centrifugation, and washed twice in ice-cold uptake buffer (100 mM potassium phosphate, pH 6.5). C14 labeled sugar uptake assay was done according to Boles and Oreb. Radioactivity was analyzed in a Beckman-Coulter LS6500 multi-purpose liquid scintillation counter (Beckman-Coulter, CA, USA).
Sugar solutions contained 0.135-0.608 μCi of D-[U-^14C]-glucose (290-300 mCi/mmol) or D-[1-^14C]-xylose (55 mCi/mmol) (PerkinElmer, MA, USA). Calculation of Km (Michaelis constant), Vmax (maximal initial uptake velocity), and K (inhibitor constant for competitive inhibition) was done by nonlinear regression analysis and global curve fitting in Prism 7 (GraphPad Software) with values of three independent measurements.

[5] = system: SR8D8 expressing transporter; experiment: Mixed sugar fermentation at industrially relevant sugar concentrations; format: cell-based, S. cerevisiae; settings: 7% glucose and 4% xylose (70 g/L, 40 g/L)
Procedure: as §1

[6] = system: SR8D8 expressing transporter; experiment: Sole glucose or xylose flask fermentation; format: cell-based, S. cerevisiae
Procedure: as §1, §2

B1: A175F: AtSWEET7 single mutation A175F (protein, UniProt Q8LBF7 1-258, looked up, variant A175F)
Bidirectional sugar …: MVFAHLNLLRKIVGIIGNFIALCLFLSPTPTFVRIVKKKSVEEYSPIPYLATLINCLVWVLYGLPTVHPDSTLVITINGTGILIEIVFLTIFFVYCGRQKQRLIISAVIAAETAFIAILAVLVLTLQHTTEKRTMSVGIVCCVFNVMMYASPLSVMKMVIKTKSVEFMPFWLSVFGFLNAGVWTIYALMPFDPFMAIPNGIGCLFGLAQLILYGAYYKSTKRIMAERENQPGYVGLSSAIARTGSEKTANTNQEPNNV
In the case of B1, the “glucose and xylose mixed sugar fermentation phenotype” value [1] is reported as “capable of improving glucose and xylose uptake rate”.

B2: Lipomyces starkeyi LST1_205437 transporter, wild type, SEQ ID NO: 4 (Lipomyces starkeyi NRRL Y-11557) (protein)
chain: MGFLGFLNRSQASEPVEKESTATTPSEGRTPQRPLSPAVGVPLEQDFETQLSAKDAPLLAFILGGVASVGGFMFGYQTGQISGFLEMSDFKTRFAACNSQTGQCTFSAARQGTIVGLFSIGTLIGSLIAAPIADRIGRRLTISFWAFFFMIGTVLEISSSHVWVQFAMGRFVGGLGIGALSVVVPMYQSESTPRMIRGVIVSSYQLMVTLGIWLAYMINWGTESLQGSQSWRITNGMSFLWALVLGIAILGLPESPRYAYRVGREEEARKNMARLYKLSPNHPIINLEIQEIQEKLDAERVGGDHPWYEIFTGPRMLYRTILGMVLQAGQQLTGANYFFYYGTTVFSATGLSNSYVTQIILGSVNVGGTIAGLWLIENCGRRKALMGGAAWMFMCFMVFAFVGHFSLDHQNPEATPQAGAALVVFSCLFIIAFAMTWGPIVWAIVGELYPARYRATCMGLATSSNWLFNFLIGFFTTFITGDIDYLYGLVFAGCCFALFFIVYFFVIETKGRSLEEIDTMYVLHVNPINSAKWDSSQLMRDGDGLVNTDDLYLEAGGNRFAKDEHSAHEMIPSHDENAPGPSHTSHADIEKAESSGAESRDAL
B2 was tested, and the Km [2] was 4.975 mM and the Vmax [2] was 46.89 nmol/min/mg.

B3: AtSWEET5: Arabidopsis thaliana SWEET5 transporter polypeptide (protein, UniProt Q9FM10 1-240, looked up)
Bidirectional sugar …: MTDPHTARTIVGIVGNVISFGLFCAPIPTMVKIWKMKSVSEFKPDPYVATVLNCMMWTFYGLPFVQPDSLLVITINGTGLFMELVYVTIFFVFATSPVRRKITIAMVIEVIFMAVVIFCTMYFLHTTKQRSMLIGILCIVFNVIMYAAPLTVMKLVIKTKSVKYMPFFLSLANFMNGVVWVIYACLKFDPYILIPNGLGSLSGIIQLIIYITYYKTTNWNDDDEDKEKRYSNAGIELGQA
With B3 the “glucose and xylose mixed sugar fermentation phenotype” value [1] was “simultaneously utilize glucose and xylose” and the “growth / transport capacity on glucose or xylose” value (“growth / transport capacity” below) [3] was “capable of sustaining an efficient growth on glucose or xylose”.

B4: Saccharomyces cerevisiae ScGal2 (Gal2) transporter, SEQ ID NO:32 (Saccharomyces cerevisiae S288C) (protein)
chain: MAVEENNMPVVSQQPQAGEDVISSLSKDSHLSAQSQKYSNDELKAGESGSEGSQSVPIEIPKKPMSEYVTVSLLCLCVAFGGFMFGWDTGTISGFVVQTDFLRRFGMKHKDGTHYLSNVRTGLIVAIFNIGCAFGGIILSKGGDMYGRKKGLSIVVSVYIVGIIIQIASINKWYQYFIGRIISGLGVGGIAVLCPMLISEIAPKHLRGTLVSCYQLMITAGIFLGYCTNYGTKSYSNSVQWRVPLGLCFAWSLFMIGALTLVPESPRYLCEVNKVEDAKRSIAKSNKVSPEDPAVQAELDLIMAGIEAEKLAGNASWGELFSTKTKVFQRLLMGVFVQMFQQLTGNNYFFYYGTVIFKSVGLDDSFETSIVIGVVNFASTFFSLWTVENLGHRKCLLLGAATMMACMVIYASVGVTRLYPHGKSQPSSKGAGNCMIVFTCFYIFCYATTWAPVAWVITAESFPLRVKSKCMALASASNWVWGFLIAFFTPFITSAINFYYGYVFMGCLVAMFFYVFFFVPETKGLSLEEIQELWEEGVLPWKSEGWIPSSRRGNNYDLEDLQHDDKPWYKAMLE
B4 was tested, and the Km [2] was 1.613 mM and 1.6 ± 0.2 mM.

B5: ScGal2: S. cerevisiae Gal2 hexose transporter, control; SEQ ID NO:32 (protein)
chain: MAVEENNMPVVSQQPQAGEDVISSLSKDSHLSAQSQKYSNDELKAGESGSEGSQSVPIEIPKKPMSEYVTVSLLCLCVAFGGFMFGWDTGTISGFVVQTDFLRRFGMKHKDGTHYLSNVRTGLIVAIFNIGCAFGGIILSKGGDMYGRKKGLSIVVSVYIVGIIIQIASINKWYQYFIGRIISGLGVGGIAVLCPMLISEIAPKHLRGTLVSCYQLMITAGIFLGYCTNYGTKSYSNSVQWRVPLGLCFAWSLFMIGALTLVPESPRYLCEVNKVEDAKRSIAKSNKVSPEDPAVQAELDLIMAGIEAEKLAGNASWGELFSTKTKVFQRLLMGVFVQMFQQLTGNNYFFYYGTVIFKSVGLDDSFETSIVIGVVNFASTFFSLWTVENLGHRKCLLLGAATMMACMVIYASVGVTRLYPHGKSQPSSKGAGNCMIVFTCFYIFCYATTWAPVAWVITAESFPLRVKSKCMALASASNWVWGFLIAFFTPFITSAINFYYGYVFMGCLVAMFFYVFFFVPETKGLSLEEIQELWEEGVLPWKSEGWIPSSRRGNNYDLEDLQHDDKPWYKAMLE
modifications: protein sequence alignmnet of ScGal2
For B5, the “glucose and xylose mixed sugar fermentation phenotype” value [1] was “sequential fermentation”, the “glucose and xylose mixed sugar fermentation phenotype” value ([1]; listed as GAL2) was “transport both glucose and xylose in a sequential manner; also recorded: sequential manner of sugar utilization” and the “inhibition of xylose transport by glucose (in words)” value [4] was “complete xylose inhibition even at the presence of 25 mM glucose”. For the same molecule, the “mixed sugar utilization profile at high sugar” value [5] was “sequential utilization of glucose and xylose”.

B6: AtSWEET4: Arabidopsis thaliana SWEET4 transporter polypeptide (protein, UniProt Q944M5 1-251, looked up)
Bidirectional sugar …: MVNATVARNIAGICGNVISLFLFLSPIPTFITIYKKKKVEEYKADPYLATVLNCALWVFYGLPMVQPDSLLVITINGTGLAIELVYLAIFFFFSPTSRKVKVGLWLIGEMVFVGIVATCTLLLFHTHNQRSSFVGIFCVIFVSLMYIAPLTIMSKVIKTKSVKYMPFSLSLANFLNGVVWVIYALIKFDLFILIGNGLGTVSGAVQLILYACYYKTTPKDDEDEEDEENLSKVNSQLQLSGNSGQAKRVSA
With B6 the “glucose and xylose mixed sugar fermentation phenotype” value [1] was “co-consumption of glucose and xylose with a faster glucose consumption rate than that of xylose; also recorded: co-fermentation with glucose preference”, the “glucose and xylose mixed sugar fermentation phenotype” value ([1]; listed as SWEET4) was “simultaneously utilize glucose and xylose” and the “growth / transport capacity” value [3] was “substantial growth on xylose and glucose; also recorded: both glucose and xylose transport capacity”. The “growth / transport capacity” value ([3]; listed as SWEET4) was “capable of sustaining an efficient growth on glucose or xylose”.

B7: AtSWEET1: Arabidopsis thaliana SWEET1 transporter polypeptide, SEQ ID NO:1 (protein)
chain: MNIAHTIFGVFGNATALFLFLAPSITFKRIIKNKSTEQFSGIPYPMTLLNCLLSAWYGLPFVSKDNTLVSTINGTGAVIETVYVLIFLFYAPKKEKIKIFGIFSCVLAVFATVALVSLFALQGNGRKLFCGLAATVFSIIMYASPLSIMRLVVKTKSVEFMPFFLSLFVFLCGTSWFVYGLIGRDPFVAIPNGFGCALGTLQLILYFIYCGNKGEKSADAQKDEKSVEMKDDEKKQNVVNGKQDLQV
modifications: Arabidopsis thaliana SWEET1 (AtSWEET1) transporter polypeptide
For B7, the “glucose and xylose mixed sugar fermentation phenotype” value [1] was “complete preference for glucose with negligible xylose consumption; also recorded: solo glucose fermentation”, the “sole sugar fermentation performance” value ([6]; glucose or xylose conditions, YP medium) was “robust glucose fermentation but inefficient xylose fermentation” and the xylose consumption ([6]; xylose fermentation, within 50 h) was 5 g/L. For the same molecule, the “growth / transport capacity” value [3] was “can sustain growth of SR8D8 in glucose and xylose containing medium; also recorded: glucose transporter with almost no xylose transport capacity”.

B8: F168A: AtSWEET1 single mutation F168A (protein, UniProt Q8L9J7 1-247, looked up, variant F168A)
Bidirectional sugar …: MNIAHTIFGVFGNATALFLFLAPSITFKRIIKNKSTEQFSGIPYPMTLLNCLLSAWYGLPFVSKDNTLVSTINGTGAVIETVYVLIFLFYAPKKEKIKIFGIFSCVLAVFATVALVSLFALQGNGRKLFCGLAATVFSIIMYASPLSIMRLVVKTKSVEFMPFFLSLAVFLCGTSWFVYGLIGRDPFVAIPNGFGCALGTLQLILYFIYCGNKGEKSADAQKDEKSVEMKDDEKKQNVVNGKQDLQV
For B8, the “glucose and xylose mixed sugar fermentation phenotype” value [1] was “capable of improving both glucose and xylose uptake rate”.
